Reference: the DeepSol protein solubility set

Experiment: soluble on expression in E. coli; label from the status in PepcDB or PDB records

Sequence | soluble on expression in E. coli
MKRFLLSLLALTTLVGCNSKDDNTPTPAKPLSEQQQAYLPTKKVKRISCTYIDEGTTSNTNSPNSYLEAELYNQTYTLRTAEYLYEYDNMGRINKVTIKQERKPEDVRTFTYKDYSVIITAPYDTEVNGQYDIQAVEYGLNAAGNTLGFGMYNEKQQLKSVGDEIITWENDNITKIISKDDREGNKILETVLTYYNNENKNKFNVFSFDFSRESRSFMNYFEMPIALIIGASPKNLPKKVVIPSSRYNGEIENKIIELTYTFDNDGFVKNISENEYLRTGTSVGAYYQNSSYGDIDATTMSNTLQDLMTKIDNGTVTGKSYKIINNKQNERVIQFTIPIKVEKDSNGKPLNLIVDKICEYTFRYITENNQKKLSQIEMNITFKPHLVTHYELNY | not soluble
MKRGKGEKKATKSRDGSGQVVPLTEPVVTATGMVGTRSWIGGLFTRSNRRQDKAVDYTLSPLQEERLQRLQDRMVVPFDETRPDHQESLKALWNVAFPNVHLTGLVTEQWKEMGWQGPNPSTDFRGCGFIALENLLFSARTYPVNYSLLLKQRGDRAKWEYPFAVAGINISFMLIQMLDLQNNQDERAFDVLYCIAFAMMDAQWLAMHASYMEFNEVLQATRNQLERELSLDDIHRIQDLPAYNLLFQ | soluble
MKRLIGILLCNLFILTACSASVDKTSNSTKTTDYKIENGETLKVPEKPKRVAVLTGFYVGDFIKLGIKPIAVSDITKDSSILKPYLKGVDYIGENDVERVAKAKPDLIVVDAMDKNIKKYQKIAPTIPYTYNKYNHKEILKEIGKLTNNEDKAKKWIEEWDDKTRKDKKEIQSKIGQATASVFEPDEKQIYIYNSTWGRGLDIVHDAFGMPMTKQYKDKLQEDKKGYASISKENISKYAGDYIFLSKPSYGKFDFEKTHTWQNIEAVKKGHVISYKAEDYWFTDPITLEHLRSKLKKEILNKK | not soluble
MKRLSFLTLRPRHLSFLTLQRRNALRDALRHRSAPRRAFRIGRRASRTACDAERRTIVRLSFRALQPRRLSLLTLQRRNALRDALRHRSAPRRVFRIGRRASRTACDAQRCTIVRLSFRALQPRRLSFLTLQRRSALRDALHHKSAPRCTFKIGRGASRTACDAERRTIVRLSFRALQPRRLSFLTLQRRNALGDALRHKSAPRCTFKIGREASRTACDAERRTIVRLSFRALQPRRLSFLTLQRRNALRDALRHKSAPRRAFRIGRRASRTACDAERRTIVSQISLNALEHHHHHH | not soluble
MKRQLILEDGSFFVGEAFGSLKETTGEVVFNTGMTGYQEILTDPSYCGQIVTMTYPLIGNYGINRDDFEAIRPHVHGFIVKEACVKPSNWRGELTLDEYLKEKDIPGLAGIDTRKLTRLIRQYGTLKGMICGLDVDPVEAAAKLRAMEWPRDQVRRVSTKSAYPSPGRGERIVLIDFGMKHGILRELNKRNCDVIVLPYNATAEEVLGWHPDGVMLSNGPGDPKDVPEAIEMIRGILGKVPLFGICLGHQLFALACGANTEKMKFGHRGSNHPVKDLRTGKVAITSQNHGYTVTHESLSGTRLEVTHIALNDGTVEGLRHLDVPAFTVQYHPEASPGPEDANPLFDEFLALIREFNKKGEVIHA | soluble
MKRYRTLLFDVDDTILDFQAAEALALRLLFEDQNIPLTNDMKAQYKTINQGLWRAFEEGKMTRDEVVNTRFSALLKEYGYEADGALLEQKYRRFLEEGHQLIDGAFDLISNLQQQFDLYIVTNGVSHTQYKRLRDSGLFPFFKDIFVSEDTGFQKPMKEYFNYVFERIPQFSAEHTLIIGDSLTADIKGGQLAGLDTCWMNPDMKPNVPEIIPTYEIRKLEELYHILN | not soluble
MKSAWMEKTYTIDGCAFHTQHRKGSSGVTIVFEAGYGTSSETWKPLMADIDDEFGIFTYDRAGIGKSGQSRAKRTADQQVKELESLLKAADVKPPYLAVSHSYGAVITGLWACKNKHDIIGMVLLDPALGDCASFTFIPEEMHKSHTRKMMLEGTHAEFSKSLQELKKRQVHLGNMPLLVLSSGERTEKFAAEQEWQNLHSSILSLSNQSGWIQAKNSSHNIHHDEPHIVHLAIYDVWCAACQQAAPLYQAVN | not soluble
MKSEPDTFSIDDLERVGTEPWNGVRNYQARNFMRDGMHVGDGVFFYHSNCKVPGIVGIAKVASAAYPDDTQFDPSSDYHDPKSTREDPRWMLVDVAFERKLTRTISLDEIKQQADALGEGFPLIARGNRLSILPVTAAQWKVLLAMELEHHHHHH | not soluble
MKSIHYTKAVSGTERMTFGSNDEWERIVEEMLEFEKICIPFHSTSHSPDILFKLHGRTNEKNLMIVGIACKGRWSRNGIRWNEILEEAHKFLKPVHDQVLTSHPTWHCMLIIMSTQLATNVSEDLNHSSRCYSFGDSVGDFVIPHNCELVILSEADVENFIGKDILSNLRNAFKAVDNPHSRNIGISTLQKIVLLLSKNI | not soluble
MKSIIIAAPHSGSGKTTITVGIMECFRRRGLTVAPFKVGPDFIDPGYHRLVTGLPSANLDGWICPPEFVRASFAHHALNADMAIIEGVMGLFDGFGGIADEGSTAQVARLTGAPVILVVDARGLARSAAAILKGFAEFDPSVRVAGVIFNNVGSDSHERILREAVGQSLPELKVFGCIPRDDGLHIPARHLGLLTAEEHPLSGEFLDHLVEVIRDRVDLGLLWGAANPLGAPVPRAEPIPCQTLGGSVRLAVARDEAFCFVYEDNLCLLRRAGAEIVTFSPLRDERLPEDVAGVYLPGGYPEVFADALAANTGMKESLARAVNEGMPVYAECGGFIYLTRGVTDSAGEPESLHEFVGIFPVTTRMLPRRKALGYREVELAADTIIGPAGTLARGHEFHYSEMEEMPADVERAYRVRRGPVDLGMEGYRYRNCLASYVHLHFGSNPELAAAFVARCRSFVTRSRVLEHHHHHH | not soluble
MKSNEHDDCQVTNPSTGHLFDLSSLSGRAGFTAAYSEKGLVYMSICGENENCPPGVGACFGQTRISVGKANKRLRYVDQVLQLVYKDGSPCPSKSGLSYKSVISFVCRPEAGPTNRPMLISLDKQTCTLFFSWHTPLACEQATECSVRNGSSIVDLSPLIHRTGGYEAYDESEDDASDTNPDFYINICQPLNPMHAVPCPAGAAVCKVPIDGPPIDIGRVAGPPILNPIANEIYLNFESSTPCLADKHFNYTSLIAFHCKRGVSMGTPKLLRTSECDFVFEWETPVVCPDEVRMDGCTLTDEQLLYSFNLSSLSTSTFKVTRDSRTYSVGVCTFAVGPEQGGCKDGGVCLLSGTKGASFGRLQSMKLDYRHQDEAVVLSYVNGDRCPPETDDGVPCVFPFIFNGKSYEECIIESRAKLWCSTTADYDRDHEWGFCRHSNSYRTSSIIFKCDEDEDIGRPQVFSEVRGCDVTFEWKTKVVCPPKKLKHHHHHH | soluble
MKSRLPFRYLEPTFCAGLLDDPVLLVNVRPLGRSILVDCGQIHHLAKRVLKSIDAVFVSHAHMDHFMGLDTLVRHIHVSPRTVELFGPPGIARKVAAKLAGYDWNLTESYWCTFRVSEVHPERIVRFTFPGSEGFPCLPEEETTREGTEIFRNDFLAVDADLCDHNTLPTLVFRITERPTFWIDEAKVDQEGLVPGEWLRELKHRFYRGRLDGKTITVPVRTAGDTVAQRIREGRELFEAIRRSQEPASIGYLTDIGAGDTNLATVRRLLAGVTLLACECSFLAADVAKARTSHHLCTADVSALAREIRPGWLLPMHLSKSYNTKGHLLYRELTLAPETRLIRLPEHLTPRPLLPGEFPGLWKIAEMAGDPNSLEHHHHHH | not soluble
MKSSTMTSDYYKQTQIDQTLRLREVLKTLPPFAKDYFRAMEPKSSAKTRINYAYDIRVFFHFLLENNPIYKNYTMDQFRVQDLERIEPVDIEEYMEYLKVYKREDNEMITNGERGLKRKMSALRSFYSYYFKHQYIATNPTLLEHHHHHH | not soluble
MKSVIIVGAGIGGLCLAQGLAKAGIEFEVWEADAGPQVRGQGYRLRIDAMGQRALRQCLPPDLFELFRASCAVSGPARFVDPQLNPLPGRRPENWRENADAGEAGGDLSADRQVLRDILSHGLAPQIRWGRRARGFERGGDGIVVHCADGSEHGAALVVAADGLHSPLRRQWLPQAEPEAIGALNLYGKTPLDGIDPALLAGPTIVFADGWTLVVEPMRFRAAMSGLAARHAPDCRLSPTDDYVYWAMFGREACLGGSLSGEEDAAGWRRRIEAASGGLHPGLSDLLRRTAPEAVMGRAVRMAAGVPSWPPGRLTVLGDAIHAMSPAGGVGANTALADAAMLAVCLADGDVDRAVARYEADMRGRAERALVATRAGTERLLRRLLEHHHHHH | soluble
MKSVKEIRKSQVNSMISDQYEIFHVKDMVSPEKTIYHYHDFYEVHCTLKGVATFFLDGHQFDVEAGTVLLIHYHDLHRIIKQSTDDFERMYIFLTPDFLQQRSSKRTNLSACFQHFGQRRSKVIKVDVAKLANYLTPLDHSPLPEEYGADVRYEQQLLDFLIYLNQLVLKEENESQPKQMIENER | not soluble
MKSYPDPYRHFENLDSAETQNFAAEANAETRARFLENDKARALSDGILAQLQDTRQIPFCQEHRARMYHFHQDAEYPKGVYRVCTAATYRSGYPEWKILFSVADFDELLGDDVYLGGVSHLVEQPNRALLTLSKLGSDTAYTLEVDLEAGELVEGGFHFPAGKNHVSWRDENSVWVCPAWNERQLTQSGYPREVWLVERGKSFEESLPVYQIGEDGMMVNAWRYLDPQGSPIDLIEASDGFYTKTYLRVSAEGEAKPLNLPNDCDVVGYLAGHLLLTLRKDWN | not soluble
MKTEEMKFINESEFKKLKHYFEQKNTTSSLVLLVALTTGGRFSEIAKLKREDLDIKNNKIHLRGTKTETSDRIISIDTVTMKRIQSFIDSRPTNISGYIFTVDGKTITNAAVNKVLRKACANLNIKEITIHSLRHSFCSILIHHGFSILYISKHLGHSNPATTQSIYSHLLEHHHHHH | soluble
MKTENFRSYNQRVYSETLNDGLKITLIPKKDFHSVFAALFVNAGATDQQIVDEKGETIIFPSGTAHFAEHKMFEKKNGDVSEIFSAYGAFSNAYTSQSQTVYYFQGTENIDQSIKLLLQFVQEPYYTEASVAKEQGIIGQEISMYQDMPDWVSSFGLMKNLYRKQPLGEDIAGNIDSIETINADLLYKFHRYFYQPSNLQLKIAGNIDPTGLLALLKQTQARLTRPRINFSRVNRFNAKIPVKKSAEQNMPVALPLLAAGIKGSGNLPDIDTAIDLSFSSDLILDIYFSDSSDWYLRNYNQGFLNDDFSAQADVGRNYNFITFTGHSENKELFKEIYSQLKNISYSQELEKEFQWQKKASLGELSMSLDQLENNVFTIADVFNTDVNIFRVIEKLRELTYRKAVNLFESYYNLDSFSSFCVNPVE | not soluble
MKTETPSVKIVAITADEAGQRIDNFLRTQLKGVPKSMIYRILRKGEVRVNKKRIKPEYKLEAGDEVRIPPVRVAEREEEAVSPHLQKVAALADVILYEDDHILVLNKPSGTAVHGGSGLSFGVIEGLRALRPEARFLELVHRLDRDTSGVLLVAKKRSALRSLHEQLREKGMQKDYLALVRGQWQSHVKSVQAPLLKNILQSGERIVRVSQEGKPSETRFKVEERYAFATLVRCSPVTGRTHQIRVHTQYAGHPIAFDDRYGDREFDRQLTEAGTGLNRLFLHAAALKFTHPGTGEVMRIEAPMDEGLKRCLQKLRNAR | soluble
MKTFKLVGLSVIDDDMHRQDIPFIDGLIINKEDGQNRWLVEAYLDDDYEPMFVSLQRRPEFQLQVTITHTSNDPANMLVTVRSITKMNGHISVLMEGLMIPRRTHLAEVVLAGLVKKGLQGEALLQEFRQQMHERIDAKAPQERKR | not soluble
MKTIVVLGAGYAGLKTVVALQKKLRKEVRIILIDRNPYHYETMRLYEVASGSAPYTRMSYELADVLDKNMNELVVDQVEKIDLKNKTVELTKHKPISYDYCVVGLGFVLSSMGIAGAQENALPMSNVKQAQAIRDHIESEMRAYVKDHDSQHLSIVICGAGFQAIELAGALAQARPCFAQTAGTDPEKITIKMIDGSPRLLPMFQGKLLDYAINLSALEHHHHHH | not soluble
